Test results as given in US20150037333A1.

Biological target: canine TNF-alpha (canine) (UniProt P51742)
Test: cell-based or functional assay

Sequence of canine TNF-alpha (canine) (P51742 77-233 limits assumed): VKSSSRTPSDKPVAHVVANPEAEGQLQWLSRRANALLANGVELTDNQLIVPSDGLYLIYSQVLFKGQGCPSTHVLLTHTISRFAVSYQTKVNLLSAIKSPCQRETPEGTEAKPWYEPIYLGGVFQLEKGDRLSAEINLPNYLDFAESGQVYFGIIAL

human TNFR-canine HCB control fusion protein (human TNFR extracellular domain fused N-terminally to canine HCB hinge-CH2-CH3) (Fc fusion)
inhibition of canine TNF-alpha bioactivity (1 ng/ml) in 293-HEK cells with NF-kB-EGFP reporter construct pTRH1; IC50: 1 ng/ml
